# Assay results taken from article PMC3536700, “Structural Basis for Feed-Forward Transcriptional Regulation of Membrane Lipid Homeostasis in Staphylococcus aureus”.
# T1: SaFapR (Staphylococcus aureus RN4220, UniProt Q2FZ56 1-190)
# T1 sequence: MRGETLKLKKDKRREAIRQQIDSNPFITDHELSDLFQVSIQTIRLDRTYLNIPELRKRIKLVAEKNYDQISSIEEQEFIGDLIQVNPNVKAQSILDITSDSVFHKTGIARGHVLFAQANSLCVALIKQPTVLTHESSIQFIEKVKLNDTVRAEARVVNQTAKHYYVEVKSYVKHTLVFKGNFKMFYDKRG
# Columns and labels:
# SaFapR [1] = biological target: T1, SaFapR; assay: ITC; first dimer, sequential binding model, 25 C; ITC: 50 mM Tris-HCl pH 8, 150 mM NaCl, 25 C; EMSA: 20 mM Tris-HCl pH 8, 350 mM NaCl, 10 mM MgCl2, 5 mM DTT, 15 min room temperature, native 5% PAGE in 45 mM Tris-borate pH 8, 1 mM EDTA; details: protein: recombinant; tags: N-terminal His-tag removed with TEV protease; chain copies: 2
# SaFapR [2] = biological target: T1, SaFapR; assay: ITC; second dimer, sequential binding model, 25 C; ITC: 50 mM Tris-HCl pH 8, 150 mM NaCl, 25 C; EMSA: 20 mM Tris-HCl pH 8, 350 mM NaCl, 10 mM MgCl2, 5 mM DTT, 15 min room temperature, native 5% PAGE in 45 mM Tris-borate pH 8, 1 mM EDTA; details: protein: recombinant; tags: N-terminal His-tag removed with TEV protease; chain copies: 2
binder,measurement,setting,value
PfapR operator 40 bp (dsDNA) DNA 1: GCCAATTATATACTACTATTAGTACCTAGTCTTAATTCCG DNA 2: CGGAATTAAGACTAGGTACTAATAGTAGTATATAATTGGC,Kd,SaFapR [1],0.5 ± 0.1 nM
same,Kd,SaFapR [2],51 ± 8 nM
